Measurements reported in patent US20250026827A1 (Alector, published 2025).

T1: mouse SIRPα D1-Fc (mouse, UniProt P97797 32-150, limits assumed)
T1 construct: domain: D1
T1 sequence (looked up): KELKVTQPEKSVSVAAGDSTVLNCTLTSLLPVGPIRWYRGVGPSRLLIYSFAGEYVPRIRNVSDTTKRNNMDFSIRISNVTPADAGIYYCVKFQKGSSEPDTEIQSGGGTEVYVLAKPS

T2: mouse SIRPβ1 on CHO cells (mouse)
T2 construct: Whole entry
T2 chain: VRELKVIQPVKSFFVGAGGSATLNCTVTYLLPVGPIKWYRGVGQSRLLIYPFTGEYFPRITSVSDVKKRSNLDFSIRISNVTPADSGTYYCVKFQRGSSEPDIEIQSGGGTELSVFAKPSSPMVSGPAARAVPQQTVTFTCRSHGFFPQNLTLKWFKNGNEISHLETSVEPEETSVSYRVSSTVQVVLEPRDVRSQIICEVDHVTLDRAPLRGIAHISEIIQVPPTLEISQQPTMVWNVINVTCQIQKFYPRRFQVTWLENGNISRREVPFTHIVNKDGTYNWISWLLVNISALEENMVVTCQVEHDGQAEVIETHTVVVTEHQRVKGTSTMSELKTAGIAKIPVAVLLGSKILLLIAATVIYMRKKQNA

T3: mouse SIRPα on cells (mouse, UniProt P97797 32-513)
T3 construct: whole, on cells
T3 sequence (looked up): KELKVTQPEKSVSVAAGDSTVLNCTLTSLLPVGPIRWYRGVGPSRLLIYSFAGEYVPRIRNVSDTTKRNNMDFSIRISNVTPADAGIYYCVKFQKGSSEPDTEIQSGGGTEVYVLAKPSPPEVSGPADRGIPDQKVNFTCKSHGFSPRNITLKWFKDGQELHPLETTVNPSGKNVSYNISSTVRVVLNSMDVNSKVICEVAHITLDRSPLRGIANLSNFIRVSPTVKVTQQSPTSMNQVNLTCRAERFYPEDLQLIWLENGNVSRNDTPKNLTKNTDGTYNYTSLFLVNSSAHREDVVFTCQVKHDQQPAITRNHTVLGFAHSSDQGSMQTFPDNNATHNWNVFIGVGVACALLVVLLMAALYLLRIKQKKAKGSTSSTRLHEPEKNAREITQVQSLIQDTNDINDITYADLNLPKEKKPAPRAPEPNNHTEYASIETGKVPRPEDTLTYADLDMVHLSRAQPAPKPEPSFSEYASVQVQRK


Key:
[1] = molecular target: T4, human SIRPα domain 1 (D1) Fc fusion (human, UniProt P78324 32-149); assay: Octet
T4 construct: also called human SIRPα D1-Fc; Human SIRPα Fc; not shown: C-terminal human IgG1 Fc

mouse SIRPα D1-Fc = molecular target: T1, mouse SIRPα D1-Fc; assay: Octet
Protocol: Briefly, Octet affinity measurements were performed by loading IgGs on-line onto AHQ sensors. Sensors were equilibrated off-line in assay buffer for 30 min and then monitored on-line for 60 seconds for baseline establishment. For avid binding measurement, sensors with loaded IgGs were exposed to 100 nM antigen (human SIRPα domain 1 (D1) Fc fusion or SIRPβ1 domain 1 (D1) Fc fusion) for 3 min, and then transferred to assay buffer for 3 min for off-rate measurement. Additional avid binding was determined by loading biotinylated SIRPβ1 monomer on SA sensors and exposing to 100 nM IgG in solution. Monovalent binding measurements were obtained by loading human SIRPα- or SIRPβ1-Fc fusion antigens onto AHQ sensor, followed by exposure to 100 nM anti-SIRPβ1 antibody Fab. Additional monovalent measurements were made by loading biotinylated human SIRPα or SIRPβ1 monomer to SA sensor followed by exposure to 100 nM Fab in solution. Kinetics data were fit using a 1:1 binding model in the data analysis software provided by ForteBio (ForteBio Data Analysis Software 7.0).

human SIRPα on cells [2] = molecular target: T5, human SIRPα on cells (human, UniProt P78324 31-504); assay: flow cytometry;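 as to FOB: antibodies tested at 1 µg/ml for 30 min on ice against receptor-expressing cells, detected with a PE-labelled secondary antibody, read as mean fluorescence intensity relative to background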
T5 construct: Whole entry

[3] = molecular target: T2, mouse SIRPβ1 on CHO cells; assay: flow cytometry;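 as to FOB: antibodies tested at 1 µg/ml for 30 min on ice against receptor-expressing cells, detected with a PE-labelled secondary antibody, read as mean fluorescence intensity relative to background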
mouse SIRPα on cells [4] = molecular target: T3, mouse SIRPα on cells; assay: flow cytometry;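 as to FOB: antibodies tested at 1 µg/ml for 30 min on ice against receptor-expressing cells, detected with a PE-labelled secondary antibody, read as mean fluorescence intensity relative to background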
[5] = molecular target: T6, human SIRPβ1 isoform 1 on cells (human, UniProt O00241 30-398); assay: flow cytometry;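 also: antibodies tested at 1 µg/ml for 30 min on ice against receptor-expressing cells, detected with a PE-labelled secondary antibody, read as mean fluorescence intensity relative to background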
T6 construct: On CHO cells (low level), on BWZ/BW5147.G.1.4 cells (reporter cells co-express human DAP12) or on primary human myeloid cells; also called huSIRPβ1; BWZ-huSIRPβ1
T6 sequence (O00241 30-398): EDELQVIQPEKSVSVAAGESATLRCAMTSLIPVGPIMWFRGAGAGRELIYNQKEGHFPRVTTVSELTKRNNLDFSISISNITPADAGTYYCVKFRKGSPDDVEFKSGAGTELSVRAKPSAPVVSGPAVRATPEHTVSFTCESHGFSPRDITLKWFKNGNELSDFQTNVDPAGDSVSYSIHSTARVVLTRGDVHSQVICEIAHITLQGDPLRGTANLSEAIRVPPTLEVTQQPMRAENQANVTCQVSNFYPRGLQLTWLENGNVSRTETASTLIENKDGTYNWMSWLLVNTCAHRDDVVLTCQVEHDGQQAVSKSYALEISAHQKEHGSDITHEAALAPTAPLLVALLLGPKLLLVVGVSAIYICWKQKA
Protocol: (§1) Initial characterization of anti-SIRPβ1 antibodies involved determining their ability to bind cell lines expressing human or mouse SIRPβ1. Cells were harvested, plated at 10⁶/ml in a 96-well plate, washed, and incubated in 100 μl FACS buffer containing 1 μg/ml anti-SIRPβ1 antibody for 0.5 hour on ice. Cells were then washed twice and incubated in 100 μl FACS buffer containing 0.5 μg/ml PE-conjugated secondary antibody for 30 minutes on ice. Cells were washed twice in cold FACS buffer and acquired on a BD FACS Canto. Data analysis and calculation of mean fluorescence intensity (MFI) values or 00 positive cells was performed with FlowJo (TreeStar) software version 10.0.7.
(§2) As a negative control, the anti-SIRPβ1 antibodies were also screened for surface binding to CHO cells overexpressing recombinant mouse SIRPβ31. […] Given the high sequence similarity between receptors of the SIRPβ family, anti-SIRPβ1 antibodies were also screened for cross-reactivity to human and mouse SIRPα.

human SIRPα on cells [6] = molecular target: T5, human SIRPα on cells; assay: flow cytometry; remark: listed apart in the source
Protocol: as §1, §2

[7] = molecular target: T2, mouse SIRPβ1 on CHO cells; assay: flow cytometry
Protocol: as §1, §2

mouse SIRPα on cells [8] = molecular target: T3, mouse SIRPα on cells; assay: flow cytometry; remark: listed apart in the source
Protocol: as §1, §2

[9] = molecular target: T7, human SIRPβ1 domain 1 (D1) Fc fusion (human, UniProt O00241 30-148); assay: Octet, IgG avid
T7 construct: Made in HEK293/T cells with a heterologous signal peptide; also called Human SIRPβ1 D1-Fc; Human SIRPβ1-Fc; not shown: C-terminal human IgG1 Fc
T7 sequence (O00241 30-148 limits assumed): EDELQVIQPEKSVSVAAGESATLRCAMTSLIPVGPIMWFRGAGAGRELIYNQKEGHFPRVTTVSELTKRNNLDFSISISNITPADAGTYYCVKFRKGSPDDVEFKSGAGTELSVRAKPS

Binder	binding result [1]	binding result (mouse SIRPα D1-Fc)	binding result (human SIRPα on cells [2])	binding result [3]	binding result (mouse SIRPα on cells [4])	FOB [5]	FOB (human SIRPα on cells [6])	FOB [7]	FOB (mouse SIRPα on cells [8])	Kd [9]
SB-38 (antibody, V domains shown, IgG) VH: QVQLVQSGAEVKKPGASVKVSCKASGYTFTSYYMHWVRQAPGQGLEWMGIINPSGGSTSYAQKFQGRVTMTRDTSTSTVYMELSSLRSEDTAVYYCARESGTDFGTISYWGQGTLVTVSS VL: DIQMTQSPSSVSASVGDRVTITCRASQGISSWLAWYQQKPGKAPKLLIYAASSLQSGVPSRFSGSGSGTDFTLTISSLQPEDFATYYCQQAVSYPITFGGGTKVEIK	no binding (tested: 100 nM)	no binding (tested: 100 nM)	no binding (tested: 1 ug/ml)	no binding (tested: 1 ug/ml)	no binding (tested: 1 ug/ml)	1.5 fold over background	2.1 fold over background	1.3 fold over background	1.1 fold over background	7.33 nM
SB-37 (antibody, V domains shown, IgG) VH: QVQLVQSGAEVKKPGSSVKVSCKASGGTFSNYAISWVRQAPGQGLEWMGGIIPIFGTANYAQKFQGRVTITADESTSTAYMELSSLRSEDTAVYYCARSRWGASGYYYYMDVWGQGTMVTVSS VL: EIVLTQSPATLSLSPGERATLSCRASQSVSSYLAWYQQKPGQAPRLLIYDASNRATGIPARFSGSGSGTDFTLTISSLEPEDFAVYYCQQRHTYPLTFGGGTKVEIK	no binding (tested: 100 nM)	no binding (tested: 100 nM)	no binding (tested: 1 ug/ml)	no binding (tested: 1 ug/ml)	no binding (tested: 1 ug/ml)	3.8 fold over background	2.2 fold over background	1.2 fold over background	1 fold over background	7.5 nM
SB-43 (antibody, V domains shown, IgG) VH: QVQLQESGPGLVKPSETLSLTCAVSGYSISSGYYWAWIRQPPGKGLEWIGSIYHSGSTYYNPSLKSRVTISVDTSKNQFSLKLSSVTAADTAVYYCARDAPGYPMLGMDVWGQGTTVSVSS VL: EIVLTQSPATLSLSPGERATLSCRASQSVSSYLAWYQQKPGQAPRLLIYDASKRATGIPARFSGSGSGTDFTLTISSLEPEDFAVYYCQQRFDFPITFGGGTKVEIK	no binding (tested: 100 nM)	no binding (tested: 100 nM)	no binding (tested: 1 ug/ml)	no binding (tested: 1 ug/ml)	no binding (tested: 1 ug/ml)	2.8 fold over background	2.3 fold over background	1.1 fold over background	1.6 fold over background	12.3 nM
SB-46 (antibody, V domains shown, IgG) VH: not shown VL: EIVLTQSPGTLSLSPGERATLSCRASQSVRSSYLAWYQQKPGQAPRLLIYGASSRATGIPDRFSGSGSGTDFTLTISRLEPEDFAVYYCQQLYSSPYTFGGGTKVEIK	no binding (tested: 100 nM)	no binding (tested: 100 nM)	no binding (tested: 1 ug/ml)	no binding (tested: 1 ug/ml)	no binding (tested: 1 ug/ml)	5.3 fold over background	2.1 fold over background	1.3 fold over background	1.4 fold over background	20 nM
SB-44 (antibody, V domains shown, IgG) VH: EVQLVESGGGLVQPGGSLRLSCAASGFTVSSNYMSWVRQAPGKGLEWVSVIYSGGDTYYADSVKGRFTISRDNSKNTLYLQMNSLRAEDTAVYYCAREGSSFWSGSAVSYYGMDVWGQGTTVTVSS VL: DIQMTQSPSTLSASVGDRVTITCRASQSIGSWLAWYQQKPGKAPKLLIYKASSLESGVPSRFSGSGSGTEFTLTISSLQPDDFATYYCQEYGSYRTFGGGTKVEIK	no binding (tested: 100 nM)	no binding (tested: 100 nM)	no binding (tested: 1 ug/ml)	no binding (tested: 1 ug/ml)	no binding (tested: 1 ug/ml)	2.8 fold over background	2.9 fold over background	1.5 fold over background	1.2 fold over background	18.9 nM
SB-45 (antibody, V domains shown, IgG) VH: QVQLQESGPGLVKPSETLSLTCAVSGYSISSGYYWAWIRQPPGKGLEWIGSIYHSGSTYYNPSLKSRVTISVDTSKNQFSLKLSSVTAADTAVYYCARDLSRGYAVSGMDVWGQGTTVTVSS VL: VLTQSPGTLSLSPGERATLSCRASQSVSSSFLAWYQQKPGQAPRLLIYGASSRATGIPDRFSGSGSGTDFTLTISRLEPEDFAVYYCQQVVSVPTFGGGTKVEIK	no binding (tested: 100 nM)	no binding (tested: 100 nM)	no binding (tested: 1 ug/ml)	no binding (tested: 1 ug/ml)	no binding (tested: 1 ug/ml)	8.5 fold over background	2.5 fold over background	1.4 fold over background	1.2 fold over background	13.9 nM
SB-12 (antibody, V domains shown, IgG) VH: not shown VL: EIVMTQSPATLSVSPGERATLSCRASQSVSSNLAWYQQKPGQAPRLLIYSASTRATGIPARFSGSGSGTEFTLTISSLQSEDFAVYYCQQLDNLPYTFGGGTKVEIK	no binding (tested: 100 nM)	no binding (tested: 100 nM)	no binding (tested: 1 ug/ml)	no binding (tested: 1 ug/ml)	no binding (tested: 1 ug/ml)	1.6 fold over background	2 fold over background	1.3 fold over background	1.2 fold over background	4.94 nM

The remaining binders from weak to strong by Kd [9], led by results:

binding result [1]	binding result (mouse SIRPα D1-Fc)	binding result (human SIRPα on cells [2])	binding result [3]	binding result (mouse SIRPα on cells [4])	FOB [5]	FOB (human SIRPα on cells [6])	FOB [7]	FOB (mouse SIRPα on cells [8])	Kd [9]	Binder
no binding (tested: 100 nM)	no binding (tested: 100 nM)	no binding (tested: 1 ug/ml)	no binding (tested: 1 ug/ml)	no binding (tested: 1 ug/ml)	1.6 fold over background	2.1 fold over background	1.3 fold over background	1.7 fold over background	14.4 nM	SB-47 (antibody, V domains shown, IgG) VH: QLQLQESGPGLVKPSETLSLTCTVSGGSISSSSYAWGWIRQPPGKGLEWIGSIYYSGSTYYNPSLKSRVTISVDTSKNQFSLKLSSVTAADTAVYYCARDLGHYDYWSGSRDYYYGMDVWGQGTTVTVSS VL: DIQMTQSPSSLSASVGDRVTITCQASQDISNYLNWYQQKPGKAPKLLIYDASNLETGVPSRFSGSGSGTDFTFTISSLQPEDIATYYCQQADYFPITFGGGTKVEIK
no binding (tested: 100 nM)	no binding (tested: 100 nM)	no binding (tested: 1 ug/ml)	no binding (tested: 1 ug/ml)	no binding (tested: 1 ug/ml)	3.3 fold over background	2.7 fold over background	1.2 fold over background	1.2 fold over background	12.3 nM	SB-42 (antibody, V domains shown, IgG) VH: QVQLVQSGAEVKKPGASVKVSCKASGYTFTSYGISWVRQAPGQGLEWMGWISAYNGNTNYAQKLQGRVTMTTDTSTSTAYMELRSLRSDDTAVYYCARGPGHYYVAGMDVWGQGTTVTVSS VL: EIVMTQSPATLSVSPGERATITCRASQSISSYLNWYQQKPGKAPKLLIYSASSLQSGVPSRFSGSGSGTDFTLTISSLQPEDFATYYCQQGDSFPITFGGGTKVEIK
no binding (tested: 100 nM)	no binding (tested: 100 nM)	no binding (tested: 1 ug/ml)	no binding (tested: 1 ug/ml)	no binding (tested: 1 ug/ml)	2.1 fold over background	2.6 fold over background	1.1 fold over background	1 fold over background	7.47 nM	SB-35 (antibody, V domains shown, IgG) VH: QVQLVQSGAEVKKPGSSVKVSCKASGGTFSSYAISWVRQAPGQGLEWMGGIIPIFGTANYAQKFQGRVTITADESTSTAYMELSSLRSEDTAVYYCARGRPQSESYLLDYWGQGTLVTVSS VL: not shown
